First the molecules themselves.
B1: CPEB3 Ribozyme (parent)
chain: GGGGGCCACAGCAGAAGCGUUCACGUCGCGGCCCCUGUCAGAUUCUGGUGAAUCUGCGAAUUCUGCUGU

This data set covers variants of B1. As to the kind of experiment: self-cleavage, relative activity (ratio to wild type); higher = more cleavage; co-transcriptional.
For GGGGGCCACAGCAGACGCGUUCACGUCGCGGCCCCUGUCAGAUUCUGGUGAGUCUGCGAAUUCUGCUGU [A16C A52G], the self-cleavage is 0.389.

For the variant GGGGGCCACAGCAGGAGCGUUCACGUCGCGGCCCCUGUCAGAUUCUGGUGAAUCUGCGAAUUCCGCUGU [A15G U64C], the self-cleavage is 0.939.

With GGGGGCCACAGCAGGAGCGUUCACGUCGCGGCCCCUGUCAGAUUCUGGUGAAUCUGCGAAUUCAGCUGU [A15G U64A], the self-cleavage was 0.845.

On to GGGGGCCACAGCAGUAGCGUUCACGUUGCGGCCCCUGUCAGAUUCUGGUGAAUCUGCGAAUUCUGCUGU [A15U C27U], for which the self-cleavage stood at 0.153.

In the case of GGGGGCCACAGCAGUAGCGUUCACGUCGCGGCCCCUGUCAGAUUCUGGUGAAUCUGCGAUUUCUGCUGU [A15U A60U], the self-cleavage amounted to 0.325.

With GGGGGCCACAGCAGUAGCGUUCACGUCGCGGCCCCUGUCAGAUUCUGGUGAAUCUGCGAAUUCUGCUGA [A15U U69A], the self-cleavage came out at 0.961.

As for GGGGGCCACAGCAGUAGCGUUCACGUCGCGGCCCCUGUCAGAUUCUGGUGAAUCUGCGAAUUCUGCUGC [A15U U69C], the self-cleavage is 1.03.

As for GGGGGCCACAGCAGGAGCGUUCACGUCGCGGCCCCUGUCAGAUUCUGGUGAAUCUGCGAAUUCUACUGU [A15G G65A], the self-cleavage was 0.82.

Take GGGGGCCACAGCAGACGCGUUCACGUCGCGGCCCCUGUCAGAUUCUGGUGAAUCUGCGCAUUCUGCUGU [A16C A59C]: the self-cleavage was determined as 0.106.

With GGGGGCCACAGCAGACGCGUUCACGUCGCGGCCCCUGUCAGAUUCUGGUGAAUCUGCGUAUUCUGCUGU [A16C A59U], the self-cleavage amounted to 0.221.

As to GGGGGCCACAGCAGGAGCGUUCACGUCGCGUCCCCUGUCAGAUUCUGGUGAAUCUGCGAAUUCUGCUGU [A15G G31U], the self-cleavage stood at 0.558.

For GGGGGCCACAGCAGGAGCGUCCACGUCGCGGCCCCUGUCAGAUUCUGGUGAAUCUGCGAAUUCUGCUGU [A15G U21C], the self-cleavage is 0.847.

Turning to GGGGGCCACAGCAGUAGCGUUCACGUCGCGGCCCCUGUCAGAUUCUGGUGAGUCUGCGAAUUCUGCUGU [A15U A52G], the self-cleavage stood at 0.939.

Consider GGGGGCCACAGCAGGAGCGUUCACGUCGCGGCCCCUCUCAGAUUCUGGUGAAUCUGCGAAUUCUGCUGU [A15G G37C], for which the self-cleavage stood at 0.239.

Consider GGGGGCCACAGCAGACGCGUUCACGUCGCGGCCCCUGUCGGAUUCUGGUGAAUCUGCGAAUUCUGCUGU [A16C A40G], for which the self-cleavage turned out to be 0.16.

Turning to GGGGGCCACAGCAGUAGCGUUCACGUCGCGGCCCCUGUUAGAUUCUGGUGAAUCUGCGAAUUCUGCUGU [A15U C39U], the self-cleavage amounted to 0.583.

With GGGGGCCACAGCAGUAGCGUUCACCUCGCGGCCCCUGUCAGAUUCUGGUGAAUCUGCGAAUUCUGCUGU [A15U G25C], the self-cleavage was 0.165.

GGGGGCCACAGCAGUAGCGUUCACAUCGCGGCCCCUGUCAGAUUCUGGUGAAUCUGCGAAUUCUGCUGU [A15U G25A]: the self-cleavage came to 0.121.

On to GGGGGCCACAGCAGUAGCGUUCACGUCGCGGCCCCUGUCAAAUUCUGGUGAAUCUGCGAAUUCUGCUGU [A15U G41A], for which the self-cleavage is 0.28.

For GGGGGCCACAGCAGUAGCGUUCACGUCGCGGCCCCUGUCAGAUUUUGGUGAAUCUGCGAAUUCUGCUGU [A15U C45U], the self-cleavage was found to be 0.858.

As for GGGGGCCACAGCAGUAGCGUUCACGUCGCGGCCCCUGUCAGAUUAUGGUGAAUCUGCGAAUUCUGCUGU [A15U C45A], the self-cleavage amounted to 0.795.

For GGGGGCCACAGCAGUAGCGUUCACGUCGCGGCCCCUGUCAGAUUCUGGUGAAUCUGUGAAUUCUGCUGU [A15U C57U], the self-cleavage was 0.323.

Take GGGGGCCACAGCAGUAGCGUUCACGUCGCGGCCCCUGUCAGGUUCUGGUGAAUCUGCGAAUUCUGCUGU [A15U A42G]: the self-cleavage worked out at 0.68.

Regarding GGGGGCCACAGCAGGAGCGUUCACGUCGCGGCCCCUGUCAAAUUCUGGUGAAUCUGCGAAUUCUGCUGU [A15G G41A], the self-cleavage amounted to 0.732.

For GGGGGCCACAGCAGGAGCGUUCACGUCGCGGCCCCUGUCACAUUCUGGUGAAUCUGCGAAUUCUGCUGU [A15G G41C], the self-cleavage was found to be 0.777.

Turning to GGGGGCCACAGCAGGAGCGUUCACGUCGCGGCCCCUGUCAGAUACUGGUGAAUCUGCGAAUUCUGCUGU [A15G U44A], the self-cleavage came to 0.987.

Take GGGGGCCACAGCAGGAGCGUUCACGUCGCGGCCCCUGUCAGAUGCUGGUGAAUCUGCGAAUUCUGCUGU [A15G U44G]: the self-cleavage was 0.954.

Turning to GGGGGCCACAGCAGGAGCGUUCACGUCGCGGCCCCUGUCAGAUCCUGGUGAAUCUGCGAAUUCUGCUGU [A15G U44C], the self-cleavage was 0.99.

On to GGGGGCCACAGCAGGAGCGUUCACGUCGCGGCCCCUGUCAGAUUCUGGUGAAUCUGCGAAUUCUGCUUU [A15G G68U], for which the self-cleavage is 1.01.

For the variant GGGGGCCACAGCAGUAGCGUUCACGUCGCGGCCCCUGUCAGAUUCUGGUGAAUCUGCGAAUUCUGCCGU [A15U U67C], the self-cleavage was determined as 0.827.

Turning to GGGGGCCACAGCAGGAGCGUUCACGUCGCGGCCCCUGUCAGAUUCGGGUGAAUCUGCGAAUUCUGCUGU [A15G U46G], the self-cleavage was determined as 0.974.

As to GGGGGCCACAGCAGGAGCGUUCACGUCGCGGCCCCUGUCAGAUUCAGGUGAAUCUGCGAAUUCUGCUGU [A15G U46A], the self-cleavage was 1.04.

Turning to GGGGGCCACAGCAGUAGCGUUCACGUCACGGCCCCUGUCAGAUUCUGGUGAAUCUGCGAAUUCUGCUGU [A15U G28A], the self-cleavage worked out at 0.161.

As for GGGGGCCACAGCAGUAGCGUUCACGUCGCGGCGCCUGUCAGAUUCUGGUGAAUCUGCGAAUUCUGCUGU [A15U C33G], the self-cleavage was found to be 0.294.

For GGGGGCCACAGCAGUAGCGUUCACGUCGCGGCCCCUGUCAGAUUCGGGUGAAUCUGCGAAUUCUGCUGU [A15U U46G], the self-cleavage worked out at 0.898.

Turning to GGGGGCCACAGCAGUAGCGUUCACGUCGCGGCCCCUGUCAGAUUCAGGUGAAUCUGCGAAUUCUGCUGU [A15U U46A], the self-cleavage came to 0.985.

With GGGGGCCACAGCAGGAGCGUUCACGUCGCGGCCCCUGUCAGAUUCUGGUGAAACUGCGAAUUCUGCUGU [A15G U53A], the self-cleavage turned out to be 0.893.

GGGGGCCACAGCAGUAGCGUUCACGUCGCGGCCCCUGUCAGAUUCUGGUGAAUCUGCGAAUUCUGCUAU [A15U G68A]: the self-cleavage was 0.937.

In the case of GGGGGCCACAGCAGUAGCGUUCACGUCGCGGCCCCUGUCAGAUUCUGGUGAAUCUGCGAAUUCUGCUUU [A15U G68U], the self-cleavage worked out at 0.967.

The record behind these values is the RNAGym collection of RNA variant scans (doi:10.7554/elife.80360).
